According to US20200048328A1 (Bristol-Myers Squibb, published 2020):

Assays:
[1] = target: T1, human PCSK9 (human, UniProt Q8NBP7 31-692); test: PCSK9:EGFA FRET 1, competition
T1 construct: also called hPCSK9; huPCSK9

[2] = target: T1, human PCSK9; test: PCSK9:EGFA FRET 2, competition
[3] = target: T2, mouse serum albumin (mouse, UniProt P07724 25-608); test: direct binding ELISA, albumin coated
T2 construct: also called MSA; MuSA

[4] = target: T3, rhesus serum albumin (rhesus, UniProt Q28522 17-600); test: direct binding ELISA, albumin coated
T3 construct: also called RhSA; Rh-SA

[5] = target: T4, human serum albumin (human, UniProt P02768 25-609); test: direct binding ELISA, albumin coated
T4 construct: immobilized on chips or coated on plates elsewhere; also called HSA; HuSA

[6] = target: T1, human PCSK9; test: PCSK9:LDLR FRET, competition

Binder	IC50 [1] [nM]	IC50 [2] [nM]	EC50 [3] [nM]	EC50 [4] [nM]	EC50 [5] [nM]	IC50 [6] [nM]
PCSK9-PKE2 tandem 4472_B11 (designed binder, not shown: small tags and cut ends, The two parts are one polypeptide in the real molecule, joined by the undisclosed linker L; they are given here as separate chains.) PCSK9 10Fn3: MGVSDVPRDLEVVAATPTSLLISWDAPAEGYGYYRITYGETGGNSPVQEFTVPVSKGTATISGLKPGVDYTITVYAVEFDFPGAGYYHRPISINYRTE PKE2 10Fn3: GVSDVPRDLEVVAATPTSLLISWDAPAVTVRYYRITYGREVQKYSDLGPLYIYQEFTVPGSKSTATISGLKPGVDYTITVYAVTGSGESPASSKPISINYRTEHHHHHH	6.54	5.03	13.5	54	70.1	2
PCSK9-PKE2 tandem 4472_E04 (designed binder, not shown: small tags and cut ends, The two parts are one polypeptide in the real molecule, joined by the undisclosed linker Q; they are given here as separate chains.) PCSK9 10Fn3: MGVSDVPRDLEVVAATPTSLLISWDAPAEGYGYYRITYGETGGNSPVQEFTVPVSKGTATISGLKPGVDYTITVYAVEFDFPGAGYYHRPISINYRTE PKE2 10Fn3: GVSDVPRDLEVVAATPTSLLISWDAPAVTVRYYRITYGREVQKYSDLGPLYIYQEFTVPGSKSTATISGLKPGVDYTITVYAVTGSGESPASSKPISINYRTEHHHHHH	9.45	7.54	8.9	64.8	101	2
PCSK9-PKE2 tandem 4472_H11 (designed binder, not shown: small tags and cut ends, The two parts are one polypeptide in the real molecule, joined by the undisclosed linker P (a code, not a proline); they are given here as separate chains.) PCSK9 10Fn3: MGVSDVPRDLEVVAATPTSLLISWDAPAEGYGYYRITYGETGGNSPVQEFTVPVSKGTATISGLKPGVDYTITVYAVEFDFPGAGYYHRPISINYRTE PKE2 10Fn3: GVSDVPRDLEVVAATPTSLLISWDAPAVTVRYYRITYGREVQKYSDLGPLYIYQEFTVPGSKSTATISGLKPGVDYTITVYAVTGSGESPASSKPISINYRTEHHHHHH	8.76	6.24	13.2	58.1	85.3	1.3
PCSK9-PKE2 tandem 4472_D06 (designed binder, not shown: The inter-domain linker; In the real molecule the two parts below are one polypeptide joined by this linker) PCSK9 domain: MGVSDVPRDLEVVAATPTSLLISWDAPAEGYGYYRITYGETGGNSPVQEFTVPVSKGTATISGLKPGVDYTITVYAVEFDFPGAGYYHRPISINYRTE PKE2 domain: GVSDVPRDLEVVAATPTSLLISWDAPAVTVRYYRITYGREVQKYSDLGPLYIYQEFTVPGSKSTATISGLKPGVDYTITVYAVTGSGESPASSKPISINYRTEHHHHHH	8.12	6.51	15.6	93.1	139	1.8

Now those with a lower IC50 [1], led by results:

IC50 [1] [nM]	IC50 [2] [nM]	EC50 [3] [nM]	EC50 [4] [nM]	EC50 [5] [nM]	IC50 [6] [nM]	Binder
6.32	5.22	9.5	54.1	80.2	1.7	PCSK9-PKE2 tandem 4472_D08 (designed binder, not shown: small tags and cut ends, The two parts are one polypeptide in the real molecule, joined by the undisclosed linker N; they are given here as separate chains.) PCSK9 10Fn3: MGVSDVPRDLEVVAATPTSLLISWDAPAEGYGYYRITYGETGGNSPVQEFTVPVSKGTATISGLKPGVDYTITVYAVEFDFPGAGYYHRPISINYRTE PKE2 10Fn3: GVSDVPRDLEVVAATPTSLLISWDAPAVTVRYYRITYGREVQKYSDLGPLYIYQEFTVPGSKSTATISGLKPGVDYTITVYAVTGSGESPASSKPISINYRTEHHHHHH
5.66	4.35	13.1	63.1	102	1.5	PCSK9-PKE2 tandem 4472_E05 (designed binder, not shown: small tags and cut ends, The two parts are one polypeptide in the real molecule, joined by the undisclosed linker R; they are given here as separate chains.) PCSK9 10Fn3: MGVSDVPRDLEVVAATPTSLLISWDAPAEGYGYYRITYGETGGNSPVQEFTVPVSKGTATISGLKPGVDYTITVYAVEFDFPGAGYYHRPISINYRTE PKE2 10Fn3: GVSDVPRDLEVVAATPTSLLISWDAPAVTVRYYRITYGREVQKYSDLGPLYIYQEFTVPGSKSTATISGLKPGVDYTITVYAVTGSGESPASSKPISINYRTEHHHHHH
5.14	4.44	16.7	84	144	1.1	PCSK9-PKE2 tandem 4472_A04 (designed binder, not shown: The inter-domain linker; In the real molecule the two parts below are one polypeptide joined by this linker) PCSK9 domain: MGVSDVPRDLEVVAATPTSLLISWDAPAEGYGYYRITYGETGGNSPVQEFTVPVSKGTATISGLKPGVDYTITVYAVEFDFPGAGYYHRPISINYRTE PKE2 domain: GVSDVPRDLEVVAATPTSLLISWDAPAVTVRYYRITYGREVQKYSDLGPLYIYQEFTVPGSKSTATISGLKPGVDYTITVYAVTGSGESPASSKPISINYRTEHHHHHH
